Legend:
Assay type in all cases: cell-based, human
[1] = system: HIF-1 alpha; experiment: Cotransfection reporter assay (HIF-RE2-luc) with HIF-1 alpha in HEK/293 cells; settings: for reduction of transactivation activity of cotransfected HIF-1 alpha on hypoxia responsive reporter gene construct: HEK/293, wild type HIF-1 alpha, equal amounts of each plasmid transfected; for sensitivity of double mutant HIF-1 alpha (P402/577G) activity to cotransfected hydroxylase: HEK/293, double mutant, constitutively active; for sensitivity of HIF-1 alpha P402G mutant to cotransfected hydroxylase, versus wild type HIF-1 alpha: HEK/293, glycine substituted for P402; for sensitivity of HIF-1 alpha P577 mutant to cotransfected hydroxylase: HEK/293, mutation of P577
Procedure: (§1) HIF-prolyl hydroxylase activity of PH-2 was examined in a cellular co-transfection assay in HEK/293 cells. In a typical experiment, cells were seeded at a density of 2×10^4 cells per well in 96-well tissue culture plates (Greiner, Germany) and grown in DMEM F12 tissue culture medium (Gibco) supplemented with 10% fetal calf serum (PAA) and antibiotics for 24 hours at 37° C. in a humidified tissue culture incubator (Heraeus, Germany) in a 5% CO2 atmosphere. Plasmid DNA was introduced into the HEK/293 cells by use of Lipofectamin reagent (Gibco) according to the manufacturer's instructions.
(§2) The following expression plasmids were used in transfection experiments. pCDNA3 cloning vectors were obtained from Invitrogen: • HIF-1alpha pcDNA3 containing the coding sequence of mouse hypoxia inducible factor-1 alpha (Gene bank accession number: NM_010431). • HIF-1 alpha P402G pcDNA3 containing the coding sequence of mouse hypoxia inducible factor-1 alpha in which the HIF proline hydroxylase sensitive proline residue at position 402 was replaced with glycine by site-directed mutagenesis using QuickChange™ XL Site-Directed Mutagenesis Kit, Stratagene. • HIF-1 alpha P577G pcDNA3 containing the coding sequence of mouse hypoxia inducible factor-1alpha in which the HIF proline hydroxylase sensitive proline residue at position 577 (the ortholog of P564 of human HIF) was replaced with glycine by site-directed mutagenesis using QuickChange™ XL Site-Directed Mutagenesis Kit, Stratagene. • HIF-1 alpha P402/577G pcDNA3 containing the coding sequence of mouse hypoxia inducible factor-1alpha in which both HIF proline hydroxylase sensitive proline residues at positions 402 and 577 were replaced with glycine by site-directed mutagenesis using QuickChange™ XL Site-Directed Mutagenesis Kit, Stratagene. • HIF-2 alpha pcDNA3 containing the coding sequence of mouse hypoxia inducible factor-2 alpha (Gene bank accession number: AF045160). • HIF-RE2-luc, HIF reporter construct (constructed in pGL3, Promega) consisting of a minimal promoter containing a tandem of hypoxia responsible elements (FIG. 5, bold underlined) and the CMV promoter TATA box (FIG. 5, underlined) upstream of the firefly luciferase gene. • pRLTK (Promega) containing the coding sequence of renilla luciferase, used as transfection standard. • PH-alpha(I) pcDNA3 containing the coding sequence of human prolyl 4-hydroxylase alpha (I) (Gene bank accession number: U14620). • EGLN3 pcDNA3 containing the coding sequence of a recently identified human HIF-prolyl-hydroxylase (Epstein et al., Cell 107, 43-54, 2001; Bruick & McKnight, Science 294, 1337-40, 2001; gene bank accession number: XM—052824). • PH-2 pcDNA3 containing the coding sequence from SEQ ID NO:3.
(§3) In a typical experiment, 30 ng of HIF-RE2 pGL3 luciferase reporter plasmid and 10 ng pRLTK internal standard were cotransfected with prolyl-4 hydroxylase and HIF pCDNA3 expression plasmids. The amount of transfected pCDNA3 plasmids was kept constant at 60 ng by filling up with pCDNA3 empty cloning vector. Twenty-four hours later, luciferase activity was measured in a lumibox equipped with a Hamamatsu camera (Hamamatsu Photonics, Japan) using after lysis of cells in luciferase buffer.
A luciferase reporter construct in which a tandem of hypoxia responsive elements linked to a minimal promoter drive firefly luciferase was cotransfected with HIF-1 alpha and HIF-2 alpha, respectively, and with the candidate HIF prolyl 4-hydroxylases EGLN3 and PH-2, respectively.

[2] = system: HIF-2 alpha; experiment: Cotransfection reporter assay (HIF-RE2-luc) with HIF-2 alpha in HEK/293 cells; settings: for activity of HIF-2 alpha on reporter: HEK/293, hydroxylase and HIF-2 alpha cotransfected in a ratio 10:1; for activity on HIF-2 alpha compared with activity on HIF-1 alpha: HEK/293 cotransfection reporter assay
Procedure: as §1, §2, §3

[3] = system: HIF-2 alpha protein; experiment: Western blot analysis of HIF-2 alpha protein in cotransfected HEK/293 cells; settings: HEK/293, HIF-2 alpha specific polyclonal antibody
Procedure: as §1, with “instructions. […]” for “instructions.”

[4] = HEK/293, equal amounts of each plasmid transfected

B1: PH-alpha(I): human collagen prolyl 4-hydroxylase alpha (I) (Gene bank accession number U14620), expressed from pcDNA3 (protein)
chain: HPGFFTSIGQMTDLIHTEKDLVTSLKDYIKAEEDKLEQIKKWAEKLDRLTSTATKDPEGFVGHPVNAFKLMKRLNTEWSELENLVLKDMSDGFISNLTIQRQYFPNDEDQVGAAKALLRLQDTYNLDTDTISKGNLPGVKHKSFLTAEDCFELGKVAYTEADYYHTELWMEQALRQLDEGEISTIDKVSVLDYLSYAVYQQGDLDKALLLTKKLLELDPEHQRANGNLKYFEYIMAKEKDVNKSASDDQSDQKTTPKKKGVAVDYLPERQKYEMLCRGEGIKMTPRRQKKLFCRYHDGNRNPKFILAPAKQEDEWDKPRIIRFHDIISDAEIEIVKDLAKPRLSRATVHDPETGKLTTAQYRVSKSAWLSGYENPVVSRINMRIQDLTGLDVSTAEELQVANYGVGGQYEPHFDFARKDEPDAFKELGTGNRIATWLFYMSDVSAGGATVFPEVGASVWPKKGTAVFWYNLFASGEGDYSTRHAACPVLVGNKWVSNKWLHERGQEFRRPCTLSELE
reduction of transactivation activity of cotransfected HIF-1 alpha on hypoxia responsive reporter gene construct [1]: did not reduce

B2: EGLN3: recently identified human HIF-prolyl-hydroxylase (gene bank accession number XM—052824), expressed from EGLN3 pcDNA3 (protein)
chain: MPLGHIMRLDLEKIALEYIVPCLHEVGFCYLDNFLGEVVGDCVLERVKQLHCTGALRDGQLAGPRAGVSKRHLRGDQITWIGGNEEGCEAISFLLSLIDRLVLYCGSRLGKYYVKERSKAMVACYPGNGTGYVRHVDNPNGDGRCITCIYYLNKNWDAKLHGGILRIFPEGKSFIADVEPIFDRLLFFWSDRRNPHEVQPSYATRYAMTVWYFDAEERAEAKKKFRNLTRKTESALTED
activity of HIF-2 alpha on the hypoxia responsive reporter gene construct [2, 4]: reduced
activity of HIF-2 alpha on reporter [2]: completely abolished
activity on HIF-2 alpha compared with activity on HIF-1 alpha [2]: less active
HIF-2 alpha protein by Western blot [3]: disappearance
sensitivity of double mutant HIF-1 alpha (P402/577G) activity to cotransfected hydroxylase [1]: almost completely resistant
sensitivity of HIF-1 alpha P402G mutant to cotransfected hydroxylase, versus wild type HIF-1 alpha [1]: equally sensitive
sensitivity of HIF-1 alpha P577 mutant to cotransfected hydroxylase [1]: less sensitive
reduction of transactivation activity of cotransfected HIF-1 alpha on hypoxia responsive reporter gene construct [1]: about 90%

B3: PH-2: novel human prolyl 4-hydroxylase, SEQ ID NO:4; expressed from PH-2 pcDNA3 containing the coding sequence from SEQ ID NO:3 (protein, listed as Homo sapiens)
chain: MAAAAVTGQRPETAAAEEASRPQWAPPDHCQAQAAAGLGDGEDAPVRPLCKPRGICSRAYFLVLMVFVHLYLGNVLALLLFVHYSNGDESSDPGPQHRAQGPGPEPTLGPLTRLEGIKVGHERKVQLVTDRDHFIRTLSLKPLLFEIPGFLTDEECRLIIHLAQMKGLQRSQILPTEEYEEAMSTMQVSQLDLFRLLDQNRDGHLQLREVLAQTRLGNGWWMTPESIQEMYAAIKADPDADGVLSLQEFSNMDLRDFHKYMRSHKAESSELVRNSHHTWLYQGEGAHHIMRAIRQRVLRLTRLSPEIVELSEPLQVVRYGEGGHYHAHVDSGPVYPETICSHTKLVANESVPFETSCRYMTVLFYLNNVTGGGETVFPVADNRTYDEMSLIQDDVDLRDTRRHCDKGNLRVKPQQGTAVFWYNYLPDGQGWVGDVDDYSLHGGCLVTRGTKWIANNWINVDPSRARQALFQQEMARLAREGGTDSQPEWALDRAYRDARVEL
activity of HIF-2 alpha on the hypoxia responsive reporter gene construct [2, 4]: reduced
activity on HIF-2 alpha relative to EGLN3 [2, 4]: by a factor two less active
activity of HIF-2 alpha on reporter [2]: completely abolished
activity on HIF-2 alpha compared with activity on HIF-1 alpha [2]: less active
HIF-2 alpha protein by Western blot [3]: disappearance
sensitivity of double mutant HIF-1 alpha (P402/577G) activity to cotransfected hydroxylase [1]: almost completely resistant
sensitivity of HIF-1 alpha P402G mutant to cotransfected hydroxylase, versus wild type HIF-1 alpha [1]: equally sensitive
sensitivity of HIF-1 alpha P577 mutant to cotransfected hydroxylase [1]: less sensitive
reduction of transactivation activity of cotransfected HIF-1 alpha on hypoxia responsive reporter gene construct [1]: ~80%

— US20060110769A1, “Regulation of novel human prolyl 4-hydroxylases” (Bayer Aktiengesellschaft, priority 2001, published 2006)
